The results in this text go back to paper PMC11857385, “Parametric Cyclic Voltammetric Analysis of an Electrochemical Aptasensor for Staphylococcus aureus Iron-Regulated Surface Determinant Protein A Detection”.

The target of the data set is T1, IsdA (iron-regulated surface determinant protein A) (Staphylococcus aureus, UniProt A6QG31 47-316).
T1 sequence: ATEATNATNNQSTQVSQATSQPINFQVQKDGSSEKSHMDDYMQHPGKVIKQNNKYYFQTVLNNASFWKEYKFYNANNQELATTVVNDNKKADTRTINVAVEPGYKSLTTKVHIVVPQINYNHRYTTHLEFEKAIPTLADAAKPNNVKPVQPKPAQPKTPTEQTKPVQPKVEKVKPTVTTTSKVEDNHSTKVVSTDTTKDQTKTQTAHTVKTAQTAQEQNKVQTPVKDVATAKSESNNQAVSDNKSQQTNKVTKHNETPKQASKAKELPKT
Kind of data set: cyclic voltammetry and EIS; pH 7.5, 25 °C, 5 mM [Fe(CN)6]3-/4-, 0.1 M KCl; Aptamer (5 µM, 4 h) immobilized on SPCE/AuNPs, 2-MCE block; CV in 5 mM [Fe(CN)6]3-/4-, 0.1 M KCl, pH 7.5 (also 4.5, 10.5), 25 °C (also 4, 37 °C); zeta potential in water, room temperature. To be noted: label: FAM dye applied in imaging; 1 strand.

As to GCGCACGCGUGUGUAGUACACACGAUCGCGCGCACAAUAU (ssRNA, amine for coupling to AuNP carboxyl groups implied; position not stated) [anti-IsdA aptamer], the binding result was “binds”.
